Experimental data as given in patent publication US20240262893A1.

B1: purified R2G3 CDR3-knob (after enterokinase cleavage from trxA) (peptide)
peptide: EGDKTCPDGYEHTCGCIGGCGCKRSACIGALCCQASLGGWLSDGETYTYEF
modifications: not checked
B2: R2D9 CDR3-knob (peptide)
peptide: ITHKTCPNGYNWFDRCCSWDGTCGDGCCSNRAWPSGNGRADSSIGETYGYEF
modifications: not checked

What was measured:
[1] = molecular target: SARS-CoV-2 B.1.1.7 ('UK', alpha) variant spike protein on pseudotyped virus or live virus (SARS-CoV-2 (B.1.1.7)); assay: cell-based or functional assay
[2] = molecular target: SARS-CoV-2 B.1.351 ('SA', beta) variant spike protein on pseudotyped virus or live virus (SARS-CoV-2 (B.1.351)), P0DTC2; assay: cell-based or functional assay

Binder | live SARS CoV-2 neutralization, ng/mL (quantity not given) [1] [ng/mL] | live SARS CoV-2 neutralization, ng/mL (quantity not given) [2] [ng/mL] | pseudovirus neutralization, ng/mL (quantity not given) [2] [ng/mL]
B1 | 2.48 | 374 | 66.2
B2 |  |  | 22.6
